Measured values reported in publication PMC8069203, “Highly Sensitive Electrochemical Aptasensor for Detecting the VEGF165 Tumor Marker with PANI/CNT Nanocomposites”.

Target: VEGF165 (UniProt P15692-4 27-191)
Experiment: electrochemical aptasensor; PANI/CNT electrode; linear 0.5 pg/mL to 1 ug/mL, LOD 0.4 pg/mL (not a Kd); PBS rinsing, ferri/ferrocyanide redox probe; aptamer immobilized on PANI/CNT screen-printed carbon electrode; pH, salt and temperature not given in the material
Conditions: protein: commercial; chain copies: 2

VEGF165, sequence (P15692 other isoform, or with tags, fused parts or gaps): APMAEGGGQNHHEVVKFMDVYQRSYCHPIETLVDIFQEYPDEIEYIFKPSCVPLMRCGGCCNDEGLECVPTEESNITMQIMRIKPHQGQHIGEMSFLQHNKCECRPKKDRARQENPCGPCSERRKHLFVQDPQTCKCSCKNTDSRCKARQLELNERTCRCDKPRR

AUGCAGUUUGAGAAGUCGCGCAU (structured_RNA, 5'-NH2, coupled by amide bond to PANI/CNT carboxyl groups (DMT-MM)) [anti-VEGF165 RNA aptamer]: binds.
